Data set [1] can be described thus: Single dose preclinical toxicology study, intravenous injection. The data set is classed as in vivo, Sprague Dawley rats. The procedure:
A single dose preclinical toxicology study in Sprague Dawley rats was conducted to evaluate the potential toxicity of SARTATE when administered via intravenous injection. Testing was performed on solutions of SARTATE-copper-complex (SCC) and unlabeled SARTATE ligand (SL) at a 1:1 ratio. The study was conducted according to the requirements of OECD GLP Principles.
The test item was administered once to six groups of 10 rats (5/sex) at three doses of 50, 250 and 1000 μg/kg in the vehicle at a volume of 3 mL/kg. Two vehicle control groups of 10 rats (5/sex) were administered the vehicle only (10% ethanol in 0.9% sodium chloride and 0.056% gentisic acid) at the same volumetric dose.
Four groups of rats (one vehicle and three test item treated 50, 250 and 1000 μg/kg) from the main study were sacrificed on Day 2.
The following parameters were evaluated: mortality, daily clinical observations, weekly body weights, weekly food consumption, haematology, biochemistry, urinalysis, organ weights and gross necropsy on day of sacrifice. Extensive histopathology was performed on all animals.

Data set [2] can be described thus: HPLC analysis of radiochemical purity and stability of the formulation (gamma scintillation detector). The data set is classed as physicochemical. To be noted: post-manufacture. An excerpt: The formulations of a radioisotope-ligand complex referred to herein are stable in solution and under physiological conditions for a time. The stability of the formulation relates to the stability of the complex, where the radioisotope may undergo dissociation or the complex may undergo radiolysis. The stability of the complex can be measured by considering the radiochemical purity of the formulation. Radiochemical purity is defined as the amount of the radioisotope complexed by the sarcophagine ligand expressed as percentage of the total amount of the radioisotope present in the formulation. The radioisotope may be present in the formulation as a complex with the sarcophagine ligand, as a free radioisotope or as part of a radiolysis product.
The solution is then filtered through a solid phase extraction cartridge. […] HPLC analysis of the solution obtained can be seen in FIG. 1, showing over 97% radiochemical purity. Further HPLC analysis of the same product solution obtained over multiple time points can be seen in FIG. 2, showing that the radiochemical purity remains >90% for more than 11 hours.
The solution is then filtered through a solid phase extraction cartridge. […] HPLC analysis of the solution obtained can be seen in FIG. 3, showing over 98% radiochemical purity. […]

The format of data set [3] is in vitro ADME. Particulars: human, serum.
The next data set can be described thus: in vivo. Details: species or system Balb/c nude mice. Particulars: Balb/c nude, mouse.
[4] abbreviates: test item SCC and SL 1:1, 2-day and 15-day experimental periods.

Each structure is given as a SMILES string.

Here are results for two molecules from US20240285816A1, “FORMULATIONS FOR RADIOTHERAPY AND DIAGNOSTIC IMAGING” (priority 2016, published 2024).

One may read the NOAEL as the highest dose or exposure tested at which no adverse effect was seen. For the molecule `CC(O)[C@H](NC(=O)[C@@H]1CSSC[C@H](NC(=O)[C@@H](Cc2ccccc2)NC(=O)CCCC(=O)NC23CNCCNCC(C)(CNCCNC2)CNCCNC3)C(=O)N[C@@H](Cc2ccc(O)cc2)C(=O)N[C@H](Cc2c[nH]c3ccccc23)C(=O)N[C@@H](CCCCN)C(=O)N[C@@H](C(C)O)C(=O)N1)C(=O)O` (stereo partly drawn) [SARTATE, MeCOSar-D-Phe-Cys-Tyr-D-Trp-Lys-Thr-Cys-Thr-OH], the Human equivalent dose of the NOAEL at 14 days in data set [1] (both sexes, Sprague Dawley, in vivo, intravenous, from rat NOAEL of 1 mg/kg, read-out: Human Equivalent Dose (HED) of the NOAEL) was 0.16 mg/kg. For the same molecule, the NOAEL at 14 days in data set [1] (both sexes, in vivo, iv, single i.v. dose, Sprague Dawley rat, read-out: No Observed Adverse Effect level (NOAEL)) is 1 mg/kg. In addition, in data set [1] (intravenously at 50, 250 and 1000 μg/kg), the toxic effects result was “no toxic effects”. In addition, in data set [1] (maximum total dose 0.02 mg per patient), the “safety margin of NOAEL over the maximum human dose” value is on record as 50 times. The “Human Equivalent Dose as total dose” value in data set [1] (patient with a weight of 70 kg) is given as 11.2 mg. In data set [1] (test item SCC and SL 1:1), the “haematology, blood biochemistry and urine analysis” value was “no test item-related effects”; the “organ weight and histopathology” value is listed as “no evidence of any test item-related effect”. In addition, in data set [1] (setting [4]), the “body weight gains versus vehicle control” value is “comparable body weights gains”, the clinical abnormalities entry is “no clinical abnormalities related to treatment” and the “feed intake versus control” value is “similar”. In addition, the “macroscopic abnormalities at necropsy” value in data set [1] (test item SCC and SL 1:1, all animals) is recorded as “No macroscopic abnormalities”. Also, the mortality entry in data set [1] (test item SCC and SL at 1:1 ratio, 50, 250 and 1000 μg/kg i.v. single dose, treatment and recovery periods) is “No mortalities related to treatment”.

As usually defined, the tissue uptake is the percentage of the injected dose found per gram of tissue. A higher tissue uptake goes with strong accumulation. On to `CC(O)[C@H](NC(=O)[C@@H]1CSSC[C@H](NC(=O)[C@@H](Cc2ccccc2)NC(=O)CCCC(=O)NC23CNCCNCC(C)(CNCCNC2)CNCCNC3)C(=O)N[C@@H](Cc2ccc(O)cc2)C(=O)N[C@H](Cc2c[nH]c3ccccc23)C(=O)N[C@@H](CCCCN)C(=O)N[C@@H](C(C)O)C(=O)N1)C(=O)O` (stereo partly shown) [^64Cu-SARTATE, metal not drawn], for which the “time for which stability of the formulation is observed” value in data set [2] is listed as “up to 45 hours”. Moreover, in data set [3], the “time for which the complex remains intact (metabolic stability)” value was “up to 45 hours”. Moreover, the tissue uptake at 2 h in the data set “in vivo” (blood) came out at 0.4 ± 0.2 %ID/g; in “in vivo” (uptake by the liver), 3.1 ± 1.3 %ID/g. Moreover, the tissue uptake at 24 h in the data set “in vivo” (blood) stood at 0.1 ± 0.02 %ID/g; in the data set “in vivo” (kidney uptake), 10.1 ± 3.5 %ID/g; in the data set “in vivo” (muscle accumulation), 0.1 ± 0.01 %ID/g; in “in vivo” (tumour uptake) it was 31.4 ± 14 %ID/g; in “in vivo” (uptake in lungs), 0.6 ± 0.3 %ID/g; in “in vivo” (uptake in spleen), 0.8 ± 0.2 %ID/g.
